In patent US20250381223A1 (UTC THERAPEUTICS SHANGHAI, published 2025):
Residue numbers refer to the chain shown, from its start. Several values for one entry are separate records, joined by “and”; a condition that tells them apart may be missing. Equal values may be shown once. Values belong to the binder of their own block, whether it stands above or below them.

Columns and labels:
[1] = target: T1, recombinant human CD40-His antigen protein (human, UniProt P25942 21-193); assay: ELISA; plate coated with CD40-His 2 µg/mL; HRP-anti-hFc
T1 construct: Bought protein; also called recombinant CD40-His protein; CD40 antigen; not shown: His tag
Experimental: The binding activities of the affinity-matured antibodies for antigen CD40 were detected by ELISA. The experimental procedures were as follows: [0637] 1. 50 μL of recombinant CD40-His protein at a concentration of 2 μg/mL was added to each well of an ELISA plate, and the plate was incubated at 4° C. overnight. […] 2. The next day, the ELISA plate was washed 3 times with PBST (containing 0.05% Tween-20). [0639] 3. 250 μL of 5% skim milk powder (dissolved in PBS) was added to each well of the ELISA plate, and the plate was incubated at room temperature for 2 h. [0640] 4. The plate was washed 3 times with PBST, antibodies with different dilution ratios were added to the ELISA plate at 50 μL/well, and the plate was incubated at room temperature for 60 min. [0641] 5. The plate was washed 3 times with PBST, 50 μL of HRP-anti-hFc antibody was added to each well, and the plate was incubated at room temperature for 60 min. [0642] 6. The plate was washed 3 times with PBST, 50 μL of TMB was added to each well, and after color development at room temperature, 50 μL of 2 M HCl was added to each well to stop the reaction. The plate was read at 450 nm.

[2] = target: T2, CD40 (analyte of the SPR assay) (UniProt P25942 21-193); assay: SPR (Biacore 2000); antibody captured on protein A chip, CD40 3.125-100 nM; heterogeneous ligand model, KD1
T2 construct: Injected at 3.125-100 nM over captured antibody; also called CD40 antigen
Experimental: (§1) The experimental procedures were as follows: The binding affinities between the antibodies and the CD40 antigen were detected by SPR technique using Biacore 2000 (Cytiva, Sweden). All experiments were performed at 25° C. […] CD40 diluted in a 2-fold gradient (3.125-100 nM) was injected into the mobile phase. The association time was set at 90 s and the dissociation time at 300 s. The chip surface was regenerated by incubation with 10 mM Glycine-HCl (pH 1.5) for 30 s to remove the bound CD40 and antibody. The affinity of the antibody was simulated using a biphasic ligand model (heterogenerous ligand mode) in the build-in Biacore Evaluation software of the machine.

[3] = target: T2, CD40 (analyte of the SPR assay); assay: SPR (Biacore 2000); antibody captured on protein A chip, CD40 3.125-100 nM; heterogeneous ligand model, KD2
Experimental: as §1

[4] = target: T2, CD40 (analyte of the SPR assay); assay: SPR (Biacore 2000); antibody captured on protein A chip, CD40 3.125-100 nM; heterogeneous ligand model, kd2
Experimental: as §1

[5] = target: T2, CD40 (analyte of the SPR assay); assay: SPR (Biacore 2000); antibody captured on protein A chip, CD40 3.125-100 nM; heterogeneous ligand model, kd1
Experimental: (§2) The affinity kinetics of the affinity-matured antibodies were detected using surface plasmon resonance (SPR) technique.
as §1

[6] = target: T2, CD40 (analyte of the SPR assay); assay: SPR (Biacore 2000); antibody captured on protein A chip, CD40 3.125-100 nM; heterogeneous ligand model, ka2
Experimental: as §2, §1

[7] = target: T2, CD40 (analyte of the SPR assay); assay: SPR (Biacore 2000); antibody captured on protein A chip, CD40 3.125-100 nM; heterogeneous ligand model, ka1
Experimental: as §1

[8] = target: T1, recombinant human CD40-His antigen …; assay: ELISA; plate coated with CD40-His 2 µg/mL; IgG1, anti-human IgG-Fc (HRP)
Experimental: Therefore, the affinity of the CD40 antibody (in the form of a human classical monoclonal antibody IgG1) was detected by in vitro binding ELISA. The brief experimental procedures were as follows: [0569] (1) Construction of antibody expression plasmid: an antibody VH region was subcloned into a pEF vector containing a human CH1-Fc antibody fragment, and an antibody VL region was subcloned into a pEF vector containing a human CL antibody fragment. [0570] (2) Antibody expression: 33 μg of an antibody heavy chain expression plasmid and 67 μg of an antibody light chain expression plasmid were co-transfected into 293F suspension cells by PEI. After 4 days of culture, the supernatant was collected by centrifugation. [0571] (3) Antibody purification: the protein supernatant and protein A purification medium were incubated on ice for 2 h, and then the supernatant and the purification medium were separated by a gravity column. The purification medium was rinsed thoroughly with 100 mL of pre-cooled PBS to remove impure proteins, and finally, the target protein was eluted from the purification medium with 5-10 mL of 0.1 M Glycine-HCl (pH 2.7), and 1/10 volume of 1 M Tris-HCl (pH 9.0) was immediately added to neutralize the antibody. […] After the protein concentration was measured with A280, the antibody was packaged and cryopreserved at −80° C. […]

[9] = target: T3, CD123-Fc recombinant protein (human, UniProt P26951 19-305); assay: flow cytometry of T cells electroporated with CAR mRNA, stained with CD123-Fc + PE-anti-hIgG-Fc
T3 construct: construct not described; not shown: Fc part
T3 sequence (looked up): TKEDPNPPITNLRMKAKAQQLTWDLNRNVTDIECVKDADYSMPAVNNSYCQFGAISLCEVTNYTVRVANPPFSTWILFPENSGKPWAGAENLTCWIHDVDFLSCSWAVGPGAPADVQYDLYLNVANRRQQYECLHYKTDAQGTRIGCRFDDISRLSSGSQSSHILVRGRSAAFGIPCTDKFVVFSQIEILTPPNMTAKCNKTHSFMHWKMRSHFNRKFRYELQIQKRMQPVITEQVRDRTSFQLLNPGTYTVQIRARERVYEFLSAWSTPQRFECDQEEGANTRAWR
Experimental: (§3) The CD123 CAR mRNAs obtained in Example 35 above were each introduced into T cells by electroporation according to the following procedures: T cells were collected, washed with the Opti-MEM medium, and resuspended at 1×10e⁷/mL with the Opti-MEM medium; 10 μg of RNA and 100 μL of T cells were aliquoted, mixed well, and electroporated under the following parameters (BTX machine): 500 V, 0.7 ms; the cells were then transferred to a pre-warmed medium and cultured at 37° C. The binding of CD123 CART cells to the CD123-Fc recombinant protein was detected by FACS staining. […] Empty vector (Mock) was a control T cell without CAR molecule. A549 tumor cells were electroporated with different amounts of CD123 mRNA. The electroporation procedure was the same as described above, and only the parameters were changed, with the parameters 300 V, 0.5 ms used. CD123 expression in A549 tumor cells was detected by FACS staining of isotype or anti-CD123 antibodies and A549 cells electroporated with different amounts of CD123 mRNA. […] The cytotoxicity of CD123 CART cells against tumor cells was detected in an in vitro cytotoxicity assay. Tumor cells expressing EGFP or EGFP-A549 cells electroporated with different amounts of tumor antigen were seeded at 3000 cells/100 μL/well into a flat-bottom 96-well plate; CART cells were diluted to a proper concentration and seeded to the 100 μL/well tumor cells according to different E/T ratios (e.g., 10:1, 3:1, or 1:1), and the co-culture plate was placed into the IncuCyte S3 machine and scanning parameters were set. After scanning for 3 days, the total green object integrated intensity (GCU×μm²/well) was analyzed to calculate the killing efficiency.

[10] = target: T3, CD123-Fc recombinant protein; assay: flow cytometry of T cells electroporated with CAR mRNA, stained with CD123-Fc + PE-anti-hIgG-Fc; Mock 1.68
Experimental: as §3

[11] = target: T3, CD123-Fc recombinant protein; assay: flow cytometry of T cells electroporated with CAR mRNA, stained with CD123-Fc + PE-anti-hIgG-Fc; Mock 0.36
Experimental: as §3

B1: 40.52 (antibody, V domains shown)
VH: QVQLVQSGAEVKKPGSSVKVSCKASGGTFSSYAISWVRQAPGQGLEWMGMINPSGGTTSYAQKFQGRVTMTRDTSTSTVYMELSSLRPEDTAVYYCARGFRMDQWGQGTLVTVSS
VL: QSALTQPPSASGSPGQSVTISCTGTSSDVGAYNFVSWYQQHPGNAPKLIIYDVRKRPSGIPDRFSASKSGNTASLTVSGLQADDEADYYCSSYAGNNNLVFGGGTKLTVL
notes: Tested as human IgG1 (VH on human CH1-Fc, VL on human CL)
- EC50 [1]: 0.0975 µg/mL
- Kd [2]: 0.864 nM
- Kd [3]: 103 nM
- koff [4]: 0.0885 s⁻¹
- koff [5]: 0.00115 s⁻¹
- kon [6]: 861000 M⁻¹ s⁻¹
- kon [7]: 1.34e+06 M⁻¹ s⁻¹
- EC50 [8]: 0.0492 µg/mL and 344 nM

B4: C31 (scFv)
scFv: QPVLTQPPSMSGTPGQRVTISCSGGNSNIGDNSVSWYQQLPGTAPKLLIYNNNQRPLGVPDRFSGSKSGTSASLAIRGLQSEDEAHYYCSSWDDSLEGAQFGGGTKVTVLGGGGSGGGGSGGGGSEVQLVESGGGLVKPGGSLRLSCAASGFTFSDYYMSWIRQAPGKGLEWVSYISSSGSTIYYADSVKGRFTISRDNAKNSLYLQMNSLRAEDTAVYYCARGHQYYDFWSGYSNWFDPWGQGTLVTVSS
notes: also called anti-CD123 scFv-C31
- binding result [9]: no binding
- percent of cells in the CD123-Fc positive gate [11]: 0.64%

B6: C22 (scFv)
scFv: SYELTQPPSVSVAPGKTARITCGANNIETKSVHWYRQRPGQAPILVIYYDSDRPSGIPERFSGSTSGDTATLTISRVEAEDEADYYCQVWDSTSDHVVFGEGTKLTVLGGGGSGGGGSGGGGSEVQLVESGAEVKKPGESLKISCKGSGYSFTSYWIGWVRQMPGKGLEWMGIINPSGGSTSYAQKFQGRVTMTRDTSTSTVYMELSSLRSEDTAVYYCARVVTPYYPLTNWGQGTLVTVSS
notes: also called anti-CD123 scFv-C22
- binding result [9]: no binding
- percent of cells in the CD123-Fc positive gate [11]: 0.53%

Second part, the binder after the results:

- EC50 [1]: 0.0944 µg/mL
- Kd [2]: 0.686 nM
- Kd [3]: 48.4 nM
- koff [4]: 0.0362 s⁻¹
- koff [5]: 0.00102 s⁻¹
- kon [6]: 748000 M⁻¹ s⁻¹
- kon [7]: 1.49e+06 M⁻¹ s⁻¹
B2: 4052.17 (antibody, V domains shown)
VH: B1 VH
VL: B1 VL with N98E, L99M

- binding result [9]: no binding
- percent of cells in the CD123-Fc positive gate [10]: 1.37%
B3: C12 (scFv)
scFv: QSVLTQPPSVSAAPGQKVTISCSGSSSNIGNNYVSWYQQLPGTAPKLLIFDDNKRPSGIPDRFSGSLSGTSASLAISGLQSEDDADYYCSAWDDSLSGYVFGTGTKLTVLGGGGSGGGGSGGGGSQVQLVQSGGGLVKPGGSLRLSCAASGFTFSSYNINWVRQAPGKGPEWVSSISSSSSYRYYADSVKGRFTISRDNAKNSLYLQMNSLRAEDTAVYYCVRDKTGGYGTAFDYWGQGTLVTVSS
notes: also called anti-CD123 scFv-C12

- EC50 [8]: 0.0448 µg/mL and 305 nM
B5: F2.103 (antibody, V domains shown)
VH: EVQLVESGGGLVQPGGSLRLSCAVSGFTFSTYWMHWVRQAPGKGLVWVSRINSDGSSTTYADSVKGRFTISRDNAKNTLYLQMNSLRAEDTAVYYCARDRVLWIGELSYYGMDVWGQGTTVTVSS
VL: DIQMTQSPSTLSASVGDRVTITCRASQSISNWLAWYQQKPGKAPKLLLYKASGLESGVPSRFSGSGSGTEFTLTINSLQPDDFATYYCQQSNSYSWTFGHGTKVEIKR
